One substance from article PMC9274624 can be followed below.

Test [1] has as its target bovine ACE2 extracellular domain (residues 1-740) fused with the Fc domain of mouse IgG (bovine) (UniProt Q58DD0). The test can be described thus: SPR. A general note: Surface plasmon resonance follows binding to a sensor surface in real time, without labels.
The target in test [2] is cat ACE2 extracellular domain (residues 1-740) fused with the Fc domain of mouse IgG (cat) (UniProt Q56H28). As to the kind of experiment: SPR.
Sequence of UniProt Q56H28 (Q56H28 18-740): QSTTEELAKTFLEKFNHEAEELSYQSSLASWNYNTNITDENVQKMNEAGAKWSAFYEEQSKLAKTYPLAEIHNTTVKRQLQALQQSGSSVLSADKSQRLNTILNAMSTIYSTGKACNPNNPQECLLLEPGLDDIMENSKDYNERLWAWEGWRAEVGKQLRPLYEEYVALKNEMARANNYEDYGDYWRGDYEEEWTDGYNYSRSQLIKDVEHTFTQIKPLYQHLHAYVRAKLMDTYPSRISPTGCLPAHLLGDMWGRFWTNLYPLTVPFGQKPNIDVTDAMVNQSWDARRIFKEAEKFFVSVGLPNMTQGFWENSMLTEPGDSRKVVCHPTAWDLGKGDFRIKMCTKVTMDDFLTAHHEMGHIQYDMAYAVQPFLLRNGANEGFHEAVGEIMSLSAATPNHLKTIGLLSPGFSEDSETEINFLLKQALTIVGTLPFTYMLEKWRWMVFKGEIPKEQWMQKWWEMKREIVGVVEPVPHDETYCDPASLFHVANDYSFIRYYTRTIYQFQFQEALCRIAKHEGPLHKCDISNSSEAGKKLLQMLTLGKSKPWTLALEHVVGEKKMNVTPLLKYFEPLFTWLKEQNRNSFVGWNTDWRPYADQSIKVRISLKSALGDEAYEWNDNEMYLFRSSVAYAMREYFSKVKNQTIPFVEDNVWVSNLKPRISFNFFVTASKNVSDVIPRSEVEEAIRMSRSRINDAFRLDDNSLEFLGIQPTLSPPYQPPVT

In general, Kd refers to the constant that tells how readily two partners part at equilibrium. High values mean lower affinity, low ones higher affinity.

Sequence of UniProt Q58DD0 (Q58DD0 18-740): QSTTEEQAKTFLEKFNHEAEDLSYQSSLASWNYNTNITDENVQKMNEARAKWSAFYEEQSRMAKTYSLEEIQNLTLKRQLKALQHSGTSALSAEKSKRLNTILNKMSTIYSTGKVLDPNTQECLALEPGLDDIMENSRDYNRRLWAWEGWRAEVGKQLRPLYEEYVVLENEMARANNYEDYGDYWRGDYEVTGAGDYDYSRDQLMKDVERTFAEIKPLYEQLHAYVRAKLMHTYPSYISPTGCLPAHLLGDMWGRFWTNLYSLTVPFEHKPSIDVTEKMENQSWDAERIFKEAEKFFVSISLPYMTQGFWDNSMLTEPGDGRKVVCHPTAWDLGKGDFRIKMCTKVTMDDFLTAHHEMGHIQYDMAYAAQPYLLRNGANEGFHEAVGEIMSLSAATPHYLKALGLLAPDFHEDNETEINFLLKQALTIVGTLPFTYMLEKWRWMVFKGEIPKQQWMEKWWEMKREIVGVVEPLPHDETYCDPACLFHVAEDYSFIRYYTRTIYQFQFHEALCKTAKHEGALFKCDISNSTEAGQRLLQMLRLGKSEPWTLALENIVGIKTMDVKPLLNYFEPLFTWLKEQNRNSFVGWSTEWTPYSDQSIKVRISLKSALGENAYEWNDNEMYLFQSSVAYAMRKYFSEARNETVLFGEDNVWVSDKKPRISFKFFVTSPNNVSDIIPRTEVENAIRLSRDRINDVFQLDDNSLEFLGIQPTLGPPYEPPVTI

Turning to “SARS-CoV-2 Delta RBD (residues 319-541) (from UniProt P0DTC2 319-541) (domain or fragment)”, the Kd amounted to 71.3 nM in test [1] and 53.4 nM in test [2].
